# Assay results from patent US20250250357A1 (NANJING ZAIMING PHARMACEUTICAL, published 2025).
# T1: human MSLN-R1-his protein (human, UniProt Q13421 296-390)
# T1 construct: also called hMSLN-R1-his; human MSLN-R1 protein; not shown: His tag
# T1 chain: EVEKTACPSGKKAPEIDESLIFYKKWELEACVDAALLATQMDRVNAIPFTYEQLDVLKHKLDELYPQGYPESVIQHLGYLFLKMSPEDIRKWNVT
# B1: Tab107 (YP3, hIgG1) (antibody, V domains shown)
# VH: QEQLVESGGGLVQPGASLTLTCTASGIDFSRYYMCWVRQAPGKGLEGIACIYIGGSGSTYYASWAKGRFTISKASSTTVTLQMTSLTAADTATYFCARGTNLNYIFRLWGPGTLVTVSS
# VL: DVVMTQTPSPVSAAVGGTVTIKCQASQSINNGLAWYQQKPGQPPRLLIYSASNLESGVPSRFKGSGSGTEFTLTISDLECDDAATYYCQCIWDGNSYVNAFGGGTEVVVRT
# notes: Control antibody; VH and VL recombined into human IgG1 CH and CL expression vectors; also called YP3 human IgG1 antibody
# Tests used:
# [1] = target: T2, human MSLN-FL-his protein (human, UniProt Q13421 296-580); experiment: competitive ELISA; row F1.35.24
# T2 construct: made in HEK293E cells, purified on nickel column; also called hMSLN-FL-his; human MSLN full-length protein; not shown: His tag
# T2 sequence (Q13421 other isoform, or with tags, fused parts or gaps): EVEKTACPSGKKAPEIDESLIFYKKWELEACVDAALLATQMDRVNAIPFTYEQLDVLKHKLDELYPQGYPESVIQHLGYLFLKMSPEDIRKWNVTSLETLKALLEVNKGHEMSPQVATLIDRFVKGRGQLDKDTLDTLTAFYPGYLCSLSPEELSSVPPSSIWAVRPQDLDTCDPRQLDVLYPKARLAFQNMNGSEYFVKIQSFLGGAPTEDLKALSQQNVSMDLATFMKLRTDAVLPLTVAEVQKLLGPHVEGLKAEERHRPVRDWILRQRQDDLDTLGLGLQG
# [2] = target: T2, human MSLN-FL-his protein; experiment: competitive ELISA; row F2.13.3
# Method: (§1) In order to identify antigen-binding sites of antibodies, MSLN chimeric antibodies were grouped using competitive ELISA.
# (§2) The chimeric antibodies were diluted to 2 μg/mL with PBS and allowed to coat 96-well high-adsorption ELISA plates at 50 μL/well. After the plates were coated at 4° C. overnight, 250 μL of a blocking buffer (PBS containing 2% (w/w) BSA) was added for two hours of blocking at room temperature. 40 μg/mL of the antibodies to be tested were added, and then the human MSLN-FL-His protein with an EC₈₀ concentration corresponding to each of the antibodies to be tested was added for incubation for 2 h. The plates were washed 5 times with PBS, an HRP-labeled anti-His secondary antibody (purchased from Genescript, Cat. No. A00612) was then added for incubation for 1 h, and the plates were washed 5 times again. A TMB substrate was added at 50 μL/well, and after 10 minutes of incubation at room temperature, a stop solution (1.0 M HCl) was added at 50 μL/well. OD₄₅₀ nm values were read using an ELISA plate reader (Insight, purchased from PerkinElmer), and the competition rate between the antibodies was calculated according to the OD₄₅₀ nm values using a formula.
# [3] = target: T3, human MSLN protein, endogenously expressed on Hela and OVCAR3 cells (human, UniProt Q13421 296-598); experiment: FACS on OVCAR3 cells; antibody 100 nM
# T3 construct: whole, on cells; also called mesothelin
# T3 sequence (Q13421 other isoform, or with tags, fused parts or gaps): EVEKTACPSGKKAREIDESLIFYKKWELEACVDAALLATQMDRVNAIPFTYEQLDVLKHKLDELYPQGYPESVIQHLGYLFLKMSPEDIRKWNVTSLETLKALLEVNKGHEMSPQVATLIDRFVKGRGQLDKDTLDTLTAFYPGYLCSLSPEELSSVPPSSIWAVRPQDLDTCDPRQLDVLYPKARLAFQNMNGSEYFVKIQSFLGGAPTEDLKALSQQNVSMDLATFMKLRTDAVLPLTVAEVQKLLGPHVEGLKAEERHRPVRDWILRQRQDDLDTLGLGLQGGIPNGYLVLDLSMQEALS
# [4] = target: T4, human MSLN-R2-his protein (human, UniProt Q13421 391-486); experiment: ELISA; antibody 10 nM
# T4 construct: also called hMSLN-R2-his; not shown: His tag
# T4 sequence (Q13421 other isoform, or with tags, fused parts or gaps): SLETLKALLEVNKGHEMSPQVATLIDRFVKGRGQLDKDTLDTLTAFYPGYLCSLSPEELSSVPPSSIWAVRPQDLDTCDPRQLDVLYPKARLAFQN
# [5] = target: T5, human MSLN-R3-his protein (human, UniProt Q13421 487-598); experiment: ELISA; antibody 0.01 nM
# T5 construct: also called hMSLN-R3-his; not shown: His tag
# T5 sequence (Q13421 495-606): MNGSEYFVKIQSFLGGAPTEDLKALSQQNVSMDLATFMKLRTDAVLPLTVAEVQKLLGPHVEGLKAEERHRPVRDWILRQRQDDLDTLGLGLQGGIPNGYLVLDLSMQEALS
# [6] = target: T4, human MSLN-R2-his protein; experiment: ELISA; antibody 0.0001 nM
# [7] = target: T4, human MSLN-R2-his protein; experiment: ELISA; antibody 0.001 nM
# [8] = target: T2, human MSLN-FL-his protein; experiment: competitive ELISA; row F2.58.8
# Method: as §1, §2
# [9] = target: T2, human MSLN-FL-his protein; experiment: competitive ELISA; row F1.56.1
# [10] = target: T5, human MSLN-R3-his protein; experiment: ELISA; antibody 100 nM
# [11] = target: T5, human MSLN-R3-his protein; experiment: ELISA; antibody 0.1 nM
# [12] = target: T4, human MSLN-R2-his protein; experiment: ELISA; antibody 1 nM
# [13] = target: T3, human MSLN protein, endogenously …; experiment: FACS on OVCAR3 cells; antibody 0.032 nM
# [14] = target: T3, human MSLN protein, endogenously …; experiment: FACS on OVCAR3 cells; antibody 0.16 nM
# [15] = target: T3, human MSLN protein, endogenously …; experiment: FACS on OVCAR3 cells; antibody 0.8 nM
# [16] = target: T3, human MSLN protein, endogenously …; experiment: FACS on OVCAR3 cells; antibody 0.00128 nM
# [17] = target: T2, human MSLN-FL-his protein; experiment: competitive ELISA; row Tab107 (conformation)
# Method: as §1, §2
# [18] = target: T5, human MSLN-R3-his protein; experiment: ELISA; antibody 1 nM
# [19] = target: T2, human MSLN-FL-his protein; experiment: competitive ELISA; row F2.39.3
# Method: as §1, §2
# [20] = target: T6, human MSLN-FL-his protein (human, UniProt Q13421 296-580); experiment: ELISA; antibody 1 nM
# T6 construct: also called hMSLN-FL-his; human MSLN full-length protein; not shown: His tag
# [21] = target: T5, human MSLN-R3-his protein; experiment: ELISA; antibody 1 nM; remark: listed apart in the source
# [22] = target: T4, human MSLN-R2-his protein; experiment: ELISA; antibody 1 nM; remark: listed apart in the source
# [23] = target: T1, human MSLN-R1-his protein; experiment: ELISA; antibody 1 nM
# [24] = target: T4, human MSLN-R2-his protein; experiment: ELISA; antibody 0.1 nM
# [25] = target: T2, human MSLN-FL-his protein; experiment: competitive ELISA; row Tab142 (R1)
# [26] = target: T3, human MSLN protein, endogenously …; experiment: FACS on OVCAR3 cells; antibody 4 nM
# [27] = target: T5, human MSLN-R3-his protein; experiment: ELISA; antibody 0.0001 nM
# [28] = target: T2, human MSLN-FL-his protein; experiment: competitive ELISA; row F1.2.12
# Method: as §1, §2
# [29] = target: T5, human MSLN-R3-his protein; experiment: ELISA; antibody 0 nM (blank)
# [30] = target: T4, human MSLN-R2-his protein; experiment: ELISA; antibody 0.01 nM
# [31] = target: T4, human MSLN-R2-his protein; experiment: ELISA; antibody 100 nM
binder,measurement,setting,value
B1,competition rate,[1],8%
same,competition rate,[2],-203%
same,FACS fluorescence intensity,[3],3150
same,OD450 nm,[4],0.05
same,OD450 nm,[5],0.04
same,OD450 nm,[6],0.04
same,OD450 nm,[7],0.05
same,competition rate,[8],9%
same,competition rate,[9],-124%
same,OD450 nm,[10],0.09
same,OD450 nm,[11],0.05
same,OD450 nm,[12],0.05
same,FACS fluorescence intensity,[13],111
same,FACS fluorescence intensity,[14],229
same,FACS fluorescence intensity,[15],619
same,FACS fluorescence intensity,[16],76
same,competition rate,[17],94%
same,OD450 nm,[18],0.05
same,competition rate,[19],-24%
same,OD450 nm,[20],1.74
same,OD450 nm,[21],0.05
same,OD450 nm,[22],0.05
same,OD450 nm,[23],0.05
same,OD450 nm,[24],0.04
same,competition rate,[25],-6%
same,FACS fluorescence intensity,[26],1520
same,OD450 nm,[27],0.05
same,competition rate,[28],-41%
same,OD450 nm,[29],0.05
same,OD450 nm,[30],0.04
same,OD450 nm,[31],0.09
